Experimental data as given in patent publication US20240026407A1, “MODIFICATION OF SAPONINS” (GLAXOSMITHKLINE BIOLOGICALS SA, priority 2020, published 2024).

Key:
Type in all cases: biochemical, Quillaja saponaria
[1] = Experiment 6-1: specificity of rhamnosidases towards other rhamnose residues (C3 saccharide rhamnose, C28 saccharide rhamnose); details: TBE 2%, pH 7.5, 30 degC, 18 h; LCMS/MS; negative controls 0.18, 0.17
[2] = Experiment 6-1: screening of rhamnosidases for derhamnosylation of saponins in treated bark extract (2%), desglucosyl-QS-17 2134 to QS-21 1988 (PAR %); details: TBE 2%, pH 7.5, 30 degC, 18 h; TIC peak area ratio percent, LCMS/MS; negative controls 2.719, 2.158
[3] = Experiment 6-1: screening of rhamnosidases for derhamnosylation of saponins in treated bark extract (2%), QS-17 2310 to QS-18 2164 (PAR %); details: TBE 2%, pH 7.5, 30 degC, 18 h; TIC peak area ratio percent, LCMS/MS; negative controls 3.061, 2.429
[4] = Experiment 6-1: screening of rhamnosidases for derhamnosylation of saponins in treated bark extract (2%), QS-17 2296 to QS-18 2150 (PAR %); details: TBE 2%, pH 7.5, 30 degC, 18 h; TIC peak area ratio percent of rhamnosylated starting saponin to derhamnosylated product, LCMS/MS; negative controls 4.876, 5.225

B1: 1050 (protein, listed as Streptomyces bottropensis)
chain: MNNAPYDLRIDTGGDQFAVSGPAPRLSWKPPSDTGHPAGYELECTVDGDAQPALRVAPGRHRFLPWPWAALGSGRQVEWRVRADGPGGPTPWSEWNAFEVGLLDEDWQARWISPAESGDPGYGKRPAHTLTARFEVRAGVRSARLYATALGLYEAYVNGERAGTAELSPGSTSYDRTLHAQASDVTAAVRAGGNLVEIVLSDGWYRGQVGAFRLPAGWGTVLGARAELHIAYEDGSRQVVRSDETWTSTRSAITRADLMDGQSTDFRAGRDTEQPVLVDRVEAAAIDWSPAPPVRVVASRPAQSVKQLRDGLWIADFGQNASGRLAVGDLGPAGTRTVIDYGEHVGPDGDLTTAHLDSSRPGEEPIPFVQRDEVVSMGRGETFEPRHTVHGFQYARIRRDGAPLDPASLTMRVVHTDLRRAGSFACSDDDLNRLHEIADWSFRGNAVDVPTDCPTRERLAWTGDYQVFAPTATRLYDVLGFSRKWLRSVRDDQLPDGRIANFSPDGRRIKHHLDDQFAMMTGSAGWGDAIVAVPWELYQSYGDQEILAENWEAMVRWVEWALRTARTARHHSRRERSAEPRPHERYLWDGSFHWGEWTEPRTKTADGTRIDPVKTDPVAWFMADKGEVGTAFLYRSTSTLADVARVLGRTEDAARYAETAEHVRDAWRTEFLTPDGRTTGDTQAGYVRALSLGLVPAELRPAAAARLVELIRSAGTHLGTGFLATGDLLPVLADTGHTDMAYELLLRRTAPSWLYMLDHGATTIWEDWEGIDENGDAHDSLNHYSKGAVIRFLHTHTLGLRQAPGSVAWESVEVAPVPHPSLTWARGTHESPQGTIAVEWRTTGDELTLAVDVPPATTARVVFPDGTTETATTGTFRATRRITCASSARSARAPGDEPLVRSEGATD
For B1, the “ratio PP/QS-21” value [1] was 0.17, the “Peak75 (PAR %)” value [2] was 2.528% and the “Peak57 (PAR %)” value [3] was 2.305%. The “QS-17 (PAR %)” value [4] was 5.251%.

B2: 995 (protein)
chain: MILLGALSLASSTFAQTWIWYPGDYEIWLGNQMNNRRTERGAFFPPFWKTDSHYVVVEFSKVLNLSEPEEVFIAAEGTYNVKLDGKLQFGMPETLLLPAGKHSLNIKVWNQATPPTIYVKGKTVNSDSSWRVTYEDKEWIDESGKASDTSATIYMDAGCWNFDGATQRPSQFSLMREPQQPVAKTEQPEGGILYDFGKETFGFITLKNLSGKGKIDLYYGESPEEAKDKAYCETLDKLLLEPGQITDLAIRSTSPLHHSDNEYTLENSKAFRYVYITHEPEVQIGEVSMQYEYLPEEYRGNFRCNDEELNCIWEVGAYTMHLTTREFFIDGIKRDRWVWSGDAIQSYLMNYYLFFDSESVKRTIWLLRGKDPVTSHSNTIMDYTFYWFLSVYDYYMYSGDRHFVNQLYPRMQTMMDYVLGRTNKNGMVEGMSGDWVFVDWADGYLDKKGELSFEQVLFCRSLETMALCADLVGDKDGQQKYEKLASALKAKLEPTFWNNQKQAFVHNCVDGRQSDAVTRYANMFSVFFDYLNADKQQAIKQSVLLNDEILKITTPYMRFYELEALCALGEQETVMKEMKAYWGGMLKAGATSFWEKYNPEESGTQHLAMYGRPYGKSLCHAWGASPIYLLGKYYLGVKPTKEGYKEFAVSPVLGGLKWMEGTVPTPNGDIHVYMDNKTIKVKATEGKGYLTIQSRRQPKANMGTVEKVSEGVWRLWIDSPEERIVTYRL
modifications: Bacteroides thetaiotaomicron
In the case of B2, the “ratio PP/QS-21” value [1] is reported as 0.17, the “Peak75 (PAR %)” value [2] is reported as 2.545% and the “Peak57 (PAR %)” value [3] is reported as 3.002%. For the same molecule, the “QS-17 (PAR %)” value [4] was 5.223%.

B3: 1078 (protein, listed as Flavobacterium johnsoniae)
chain: MFQKKHLFFILLLASIVSAQEVHKKETNFQPTLESSKPWVYWYWMKSAYSKPGITADLEAMKQAGIAGAYLMTIKGPANPPLIDPPVLQLTPEFWDMIHWAFKEADRLGLKLAFHGADGFAVAGGPWITPEMSMQKIVWSTTEILGGKKVTSKLPVPAHYKDYYKNIATFAIPIKEYEITSQMQLPKVTTSNNTDASFLADPKKDENFKFADAGWIQYEFAQPFTCKSIVIETKGRDFQAQRLIVEVSDDGVNFRFHERMIAPRHGWQDMDFPNTHTITPVTAKYFRFVCDPKGTEPGAEDLDFAKWKQNLKVSKITLSNQSLINNYEGKSGAIWRLTPQTTEKEIPNSDAFKKSEIINISNFVDADGNLNWKAPKGKWKILRMGHTSTGHENATGGAGKGLEVDKFNPELIRFQLDHWFGEAVRSAGPELTSKVLEILHFDSWECGSQNWSSVFQTEFKKRRGYDLVEYLPVMAGIPVESADFSEKVLYDIRKTIADLVADNFYGTIAQIAKEYNVKLSAENVAPVVTSDALLHYKYVDYPSGEFWLKSPTHDKPFDMVDAISGGHIYGKDIIQAESFTALRMDWDEHPGNLKTTADRNYALGINRLFYHVFVHNPWTDRKPGMTLDDIGTFFQRDQTWWKPGKAWFDYCQRVQFQLQKGKPIIDLAVFSGEDFPSRSFVPDRLVPFIPNVFGKERLESEKIRLENEGQPTAKMPKEVTYSKNITDLSQWINPLNGYQYDSFNADVLINRAKVINGKISFEGGIEYGALFFPGSHKMAPNKMLSLASAEKILQLLKDGATIFVDEKPNLQPGVQSEADQKKWQNVIDEIWNNTNSATWKIGKGTVIKLPYLGNDFASIGISQDVYFTNLNRVDSETLAWAHRKSDTEDIYFISNQKAEKRTFDASFRILGKVPQWYNPVTDKTSALDNWKIENGRTIVSITLDANESGFVMFKEETKEILAKGRSSEFEKVQTLDENWKLQFDTEFKGPKEVVKINKLFDWSTSENDQIKYYSGTVVYKKEFIWKGKDSSKTWLDLGEISNIAEIKINGKDCGALWTFPFKTDISKALQKGKNTIEIKVTNTWANRLIGDQKLPKEERLTWTTAPFRLEGEPLLKAGLLGPVIIVKEK
For B3, the “ratio PP/QS-21” value [1] was 0.16, the “Peak75 (PAR %)” value [2] was 2.153% and the “Peak57 (PAR %)” value [3] was 2.788%. For the same molecule, the “QS-17 (PAR %)” value [4] was 5.218%.

B4: 1031 (protein, listed as Pedobacter heparinus)
chain: MTNFSCIAKRITSFLMLFLSCSPFITAQVKSGTIVYPRGSFDADWISCPDVNLKSYGVFHMRKVFELTSRPKQFVVHVSGDQRYRLFANGTPVCFGPARGDLRNWNYETIDIAPYLKTGKNVLAVQLWNMGSGAPAAQLTYQTGFILQGNSNAEQMVNTNNSWRIIQNKGYFPEPFPPSRLASYIVGSCDSVVFKNYPFGWQNINYDDKSWLSPVSETKPRYYTEKRSLIPRSIPMMEEKIEPITGIVRILGTDTSAILNSFNKNGSITIPANTKATILFDRKTLTTAYPEITFSKGSNGKVKITYAESLFNSENLKGNRNEIKNKTIKGYYDVFLPDGGTAHTFRPLWTRTFRYIQFDITTGSEPMVIDKMQSVFTAYPFKEHAFFTSNDSTLHEIWDVSWRTARLCANETYMDCPYYEQLQYVGDTRIQALISLYVSGDDRLMRNAIEQFHQSQIPDGLTMDAYPAGGGKFIPPFSLFWIAMLHDFYWYRDDEKFIEKYLIPMEAILKWFEYRLDNNSGMLGKTGYWNFVDWSFSPKGIPSGGLEGNSSILSLQYVYALEQAAEIFAHAKQQQKADYYHNLGQKIKRAVYARCYDINNRLLADSPERKAFSQHANIWSIITDCIPFKDQEATMERIMNDSTLTATSLYYRFYYTKAMKKAGLGSLYLSSLRPWKQMLDLGFSTFPETLAPNVRSDCHAWSASPCYDFLATVCGIEPGTPGFATVRISPNLGNLKAVSGELPHPLGPIKVSYKKIKEGSYSAHIELPANLNGIFISKDQKVILTGGKQEITFKYE
For B4, the “ratio PP/QS-21” value [1] was 0.17, the “Peak75 (PAR %)” value [2] was 2.367% and the “Peak57 (PAR %)” value [3] was 3.096%. For the same molecule, the “QS-17 (PAR %)” value [4] was 5.218%.

B5: 1040 (protein, listed as Rhodopirellula baltica)
chain: MNEDGWQDRRQLPRFSWIRLAKGRSAELSSIPVRPLKMLLSILFLTVITVAASSSVSALEPQRLRCEYLENPTGIDAARTRLSWQVTSDQRGQSQIAYRLLVASSEEQLGSGVGDLWDSGKVKSDQTLFVEYAGKPLSSRQECFWKVQVWDGAGNATESEVASWSMGLLDQSDWSAEYISYRDDSPIHTDLSTLHLPAARQYRKEFSASKSIKRATVYATALGIYELHLNGQRVGDASFAPGWTDYRKRAYYNTYDVTNLVREGDNAIGAWVADGWYSGYVGFGLLTGMGPEKNGRSTYGKTPSFMSQLEIEFEDGTKQTIGTDTTWKVTGEGPIQEADLLMGESYDARREMVGWSEPGFDHDHWDDAILAKQNGQVTAAFYEFRNPTTTGAGVKKVGEQRDFGFKRPELEAFPGVPVRVTQEIPAKTVSKLEPGTFVFDLGQNFAGTIRLKIKGREGERIQLRYGEMLHPDGRLMTENLRKARATDYYTCKGNPDGEFYQPRFTFHGFQFVEVKRLSDSSEDAGKATDSQNVQTPPLDMVTGLVLHSDTPMASTFECSDPMVNQLFKNVLWTQRANFLDLPTDCPQRDERMGWTGDAQAYVATAAYNADIGAFYTKWLRELMESQRPSGAFPGYAPYPFQHGWDFGTAWADAGVICPWTIWQFYGDTRVIDDCWEPMTRFMRWRKQTSVNDLGVSHGNAWGDWLSQGEETPLDYIDTVYFAISARMMAEMAEATGRDEEAKLYREQRAATQAAFQAKYLNEDGSITVRTQTAQALALFADLVPAEQREATGKYLAKRLSENGNHMATGFLGTRPLLPVLSGSGQHDLATFLLQSREFPSWGYEISNGATTIWERWDSYTKEDAFGRHNAAMNSFSHYAFGAVCEWMFATLAGIQSDGPGFKRIVIRPTPPSPGSNAMHEPINWVKASYESIRGTIRSEWKMVDGRFHLNVTIPANTTATVYLPTNDANSITESGNALADTANVSLLRKETNVVALTVHSGSYEFLASSGIVPAKVSLKSSEPKDNSINPGEIDLTDATKLESWDFRNPQDLAKWGERKSVDIEQRNGSAYLVATGDDSQMAVRMTKPLEGKLVIELRASPSQNSTSQFYWAIPGRGFNGQQQTKRLLRQSDAVNAYLFAIPDALTVGKLRFDPFATYDEYANAGEMMIESISIYRLVD
With B5 the “ratio PP/QS-21” value [1] was 0.18, the “Peak75 (PAR %)” value [2] was 2.372% and the “Peak57 (PAR %)” value [3] was 3.084%. The “QS-17 (PAR %)” value [4] was 5.244%.
